Consider eleven compounds from PMC7316778 (Nature Communications, 2020).

Test [1] concerns FES^S700C HL-60 neutrophils. The test is described as follows: Phagocytosis assay with GFP-expressing E. coli. As to conditions: for GFP-positive cells (%): Sup. Fig. 15a; for Mean GFP intensity (RFU): Sup. Fig. 15b. Format: cell-based, human. How it is done: HL-60 cells were differentiated to neutrophils as described above. Cells were counted and centrifuged (200g, 5 min), followed by resuspension in growth medium without antibiotics. Cells were incubated with vehicle or inhibitor (from 1000x concentrated stocks in DMSO) for 1 h at 37 °C prior to infection (1×10^6 cells in 900 µL in 12-well plate). Meanwhile, E. coli B834(DE3) constitutively expressing GFP^A206K were grown in LB medium to an OD600 of 0.4–1.0, after which bacteria were centrifuged (2000g, 5 min), washed and resuspended in PBS to appropriate density. Neutrophils were infected by addition of bacteria at multiplicity of infection (MOI) of 30 unless stated otherwise. Cells were then incubated for 1 h at 37 °C unless stated otherwise, after which cells were resuspended and transferred to Eppendorf tubes, washed in FACS buffer (1 mL, 500g, 3 min) and fixed in 1% PFA in PBS (15 min, 4 °C, in the dark). Samples were further processed as described above.
Events (generally 20,000 per condition) were gated by forward and side scatter (cells), side scatter area (singlets) and the percentage of GFP-positive cells and GFP mean fluorescence intensity (MFI) were determined based on background fluorescence for non-infected cells. The GREEN-B channel (525/30 filter) was used to detect GFP.

Test [2] deals with SYK (Homo sapiens, UniProt P43405). The test is described as follows: PamChip microarray peptide phosphorylation. As to conditions: peptide substrate phosphorylated by SYK.
For test [3], the target named is LYN (Homo sapiens, UniProt P07948). The test is described as follows: PamChip microarray peptide phosphorylation. As to conditions: peptide substrate phosphorylated by LYN.
Sequence of LYN (P07948 whole entry): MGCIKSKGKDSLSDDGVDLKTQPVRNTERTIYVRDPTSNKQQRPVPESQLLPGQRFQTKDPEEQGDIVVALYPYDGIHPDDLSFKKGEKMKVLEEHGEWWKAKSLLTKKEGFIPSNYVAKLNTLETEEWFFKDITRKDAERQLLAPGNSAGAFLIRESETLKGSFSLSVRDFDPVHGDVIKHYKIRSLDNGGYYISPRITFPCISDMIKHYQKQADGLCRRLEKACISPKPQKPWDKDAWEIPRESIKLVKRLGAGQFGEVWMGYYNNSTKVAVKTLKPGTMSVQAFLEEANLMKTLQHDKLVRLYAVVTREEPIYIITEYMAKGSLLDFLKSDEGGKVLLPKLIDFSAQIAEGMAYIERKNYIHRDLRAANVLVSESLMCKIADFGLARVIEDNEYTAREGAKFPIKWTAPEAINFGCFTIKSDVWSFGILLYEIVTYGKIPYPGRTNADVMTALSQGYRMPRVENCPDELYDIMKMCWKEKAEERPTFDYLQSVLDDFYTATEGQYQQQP
Test [4] concerns the target ABL1 (Homo sapiens, UniProt P00519). The test is described as follows: PamChip microarray peptide phosphorylation. Conditions: peptide substrate phosphorylated by ABL1.
The target in test [5] is T1, FES^WT (Homo sapiens, UniProt P07332).
T1 construct: human FES cDNA encoding residues 448–822 or human FER cDNA encoding residues 448–820 was amplified by PCR; made in house; host or cells: E. coli BL21(DE3), co-expressing YopH phosphatase
T1 sequence (P07332 448-822): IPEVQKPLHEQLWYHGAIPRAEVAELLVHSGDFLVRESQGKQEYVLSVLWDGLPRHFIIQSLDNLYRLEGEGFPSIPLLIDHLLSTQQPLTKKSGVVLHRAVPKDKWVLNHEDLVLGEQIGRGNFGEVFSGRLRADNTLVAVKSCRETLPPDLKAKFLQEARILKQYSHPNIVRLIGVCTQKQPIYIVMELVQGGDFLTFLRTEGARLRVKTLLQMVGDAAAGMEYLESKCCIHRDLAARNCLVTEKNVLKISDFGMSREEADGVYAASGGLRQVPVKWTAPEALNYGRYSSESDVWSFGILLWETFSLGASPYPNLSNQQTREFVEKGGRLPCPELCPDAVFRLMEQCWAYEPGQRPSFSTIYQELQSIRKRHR
The test is described as follows: PamChip microarray peptide phosphorylation. Format: biochemical. Conditions: peptide substrate phosphorylated by FES - WT.

In test [6] the target is FGR (Homo sapiens, UniProt P09769). Nature of the test: PamChip microarray peptide phosphorylation. As to conditions: peptide substrate phosphorylated by FGR.
Test [7] addresses CSK (Homo sapiens, UniProt P41240). Nature of the test: PamChip microarray peptide phosphorylation. As to conditions: peptide substrate phosphorylated by CSK.

Several values for one entry are separate records, joined by “and”; a condition that tells them apart may be missing. Equal entries are not always repeated.

Sequence of CSK (P41240 whole entry): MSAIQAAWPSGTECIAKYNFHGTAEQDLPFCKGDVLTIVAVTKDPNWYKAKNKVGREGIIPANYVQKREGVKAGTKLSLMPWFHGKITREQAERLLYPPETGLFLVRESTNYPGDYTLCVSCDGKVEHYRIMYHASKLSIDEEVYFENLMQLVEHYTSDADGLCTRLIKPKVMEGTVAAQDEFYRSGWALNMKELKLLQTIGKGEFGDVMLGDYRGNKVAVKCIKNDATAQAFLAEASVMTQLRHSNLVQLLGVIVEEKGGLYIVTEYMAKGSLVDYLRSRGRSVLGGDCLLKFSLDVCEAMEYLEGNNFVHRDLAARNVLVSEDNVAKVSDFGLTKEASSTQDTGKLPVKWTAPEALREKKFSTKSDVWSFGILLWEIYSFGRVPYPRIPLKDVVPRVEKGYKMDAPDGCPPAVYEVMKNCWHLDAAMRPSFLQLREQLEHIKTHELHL
Sequence of ABL1 (P00519 whole entry): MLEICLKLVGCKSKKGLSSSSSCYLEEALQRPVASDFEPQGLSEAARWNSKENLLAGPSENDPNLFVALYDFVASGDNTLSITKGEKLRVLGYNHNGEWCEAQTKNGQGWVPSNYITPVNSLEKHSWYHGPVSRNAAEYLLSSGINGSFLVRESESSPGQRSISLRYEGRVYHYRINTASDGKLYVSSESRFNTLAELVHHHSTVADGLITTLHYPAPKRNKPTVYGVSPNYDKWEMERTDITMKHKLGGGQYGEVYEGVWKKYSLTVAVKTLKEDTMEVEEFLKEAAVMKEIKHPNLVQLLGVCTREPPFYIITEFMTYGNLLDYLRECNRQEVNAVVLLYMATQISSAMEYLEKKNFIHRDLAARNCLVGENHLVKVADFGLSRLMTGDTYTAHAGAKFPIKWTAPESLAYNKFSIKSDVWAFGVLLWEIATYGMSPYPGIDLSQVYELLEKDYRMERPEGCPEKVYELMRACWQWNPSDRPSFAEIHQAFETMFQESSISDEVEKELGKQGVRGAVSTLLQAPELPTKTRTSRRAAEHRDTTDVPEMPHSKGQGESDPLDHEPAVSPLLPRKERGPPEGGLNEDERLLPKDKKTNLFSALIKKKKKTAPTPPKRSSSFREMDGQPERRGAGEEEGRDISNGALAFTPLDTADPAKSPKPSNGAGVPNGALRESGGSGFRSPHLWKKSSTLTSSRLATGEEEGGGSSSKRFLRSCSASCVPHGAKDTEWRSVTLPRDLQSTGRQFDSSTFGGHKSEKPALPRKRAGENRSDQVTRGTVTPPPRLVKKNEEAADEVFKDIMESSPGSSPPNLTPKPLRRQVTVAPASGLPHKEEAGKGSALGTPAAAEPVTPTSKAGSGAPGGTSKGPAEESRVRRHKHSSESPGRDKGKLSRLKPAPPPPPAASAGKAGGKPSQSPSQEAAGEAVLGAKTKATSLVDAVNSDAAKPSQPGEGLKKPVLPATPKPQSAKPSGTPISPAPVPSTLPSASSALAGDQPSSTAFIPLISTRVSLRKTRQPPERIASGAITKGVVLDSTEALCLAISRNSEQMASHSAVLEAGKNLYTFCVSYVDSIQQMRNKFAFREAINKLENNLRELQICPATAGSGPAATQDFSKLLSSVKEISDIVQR

Take `C=C1[C@@H](C)[C@H]2[C@H](Cc3ccccc3)NC(=O)[C@]23[C@H](OC(C)=O)/C=C/[C@@](C)(O)C(=O)[C@@H](C)C/C=C/[C@H]3[C@@H]1O` [Cytochalasin D]: the Phagocytic index in test [1] (Figure 7i, replicates) was 55.7493 and 57.2763 and 70.3881 and 51.4867 and 48.2922; in test [1] (MOI 0, Sup. Fig. 15d), 8.168 and 11.9502 and 9.328; in test [1] (MOI 5, Sup. Fig. 15d), 77.8958 and 83.9457 and 75.261; in test [1] (MOI 10, Sup. Fig. 15d), 109.345 and 104.624 and 85.7245; in test [1] (MOI 30, Sup. Fig. 15d), 212.699 and 198.296 and 185.432; in test [1] (MOI 50, Sup. Fig. 15d) it was 255.429 and 327.443 and 225.712. Further, the Phagocytic index in test [1] (infection time 15 min, Sup. Fig. 15c) is 77.5947 and 106.25 and 109.641; in test [1] (infection time 30 min, Sup. Fig. 15c), 91.7362 and 115.049 and 104.822; in test [1] (infection time 60 min, Sup. Fig. 15c) it was 117.281 and 140.555 and 99.951. Besides, the “GFP-positive cells (%)” value was 14.1178% and 22.6106% and 27.9257% in test [1] (infection time 0 min); 27.3639% and 36.225% and 38.7869% in test [1] (infection time 15 min); 33.857% and 41.6734% and 39.0238% in test [1] (infection time 30 min); 50.1058% and 58.9504% and 42.1365% in test [1] (infection time 60 min). Besides, the “Mean GFP intensity (RFU)” value in test [1] (infection time 0 min) was 245.785 RFU and 271.934 RFU and 267.216 RFU; in test [1] (infection time 15 min), 283.565 RFU and 293.305 RFU and 282.675 RFU; in test [1] (infection time 30 min) it was 270.952 RFU and 276.074 RFU and 268.61 RFU; in test [1] (infection time 60 min), 234.066 RFU and 238.429 RFU and 237.207 RFU.

On to “AMPE_5_17 (EREGSKRYCIQTK; UniProt Q07075 5-17, looked up, fragment)”, for which the “Relative phosphorylation (% of highest signal)” value in test [2] is given as -1.8 % of highest signal; in test [3] it was 0.114 % of highest signal; in test [4] it was -0.436 % of highest signal; in test [5], -0.1 % of highest signal; in test [6], -1.5 % of highest signal; in test [7], -0.745 % of highest signal.

In the case of ART_004_EAIYAAPFAKKKXC, the “Relative phosphorylation (% of highest signal)” value in test [2] is recorded as 3.2 % of highest signal; in test [3], 2.6 % of highest signal; in test [4], 100.0 % of highest signal; in test [5] it was 5.0 % of highest signal; in test [6], 8.3 % of highest signal; in test [7], 17.0 % of highest signal.

Regarding “DDR1_506_518 (LLLSNPAYRLLLA; UniProt Q08345 506-518, looked up, fragment)”, the “Relative phosphorylation (% of highest signal)” value in test [2] is listed as -3.9 % of highest signal; in test [3], -1.0 % of highest signal; in test [4] it was -1.4 % of highest signal; in test [5], -0.4 % of highest signal; in test [6] it was -6.2 % of highest signal; in test [7], -1.7 % of highest signal.

As for “EFS_246_258_Y253F (GGTDEGIFDVPLL; UniProt O43281 246-258, looked up, fragment Y253F)”, the “Relative phosphorylation (% of highest signal)” value is on record as -1.2 % of highest signal in test [2]; -0.264 % of highest signal in test [3]; -0.5 % of highest signal in test [4]; -0.634 % of highest signal in test [5]; -4.8 % of highest signal in test [6]; -0.6 % of highest signal in test [7].

As for “EPHA2_581_593 (QLKPLKTYVDPHT; UniProt P29317 581-593, looked up, fragment)”, the “Relative phosphorylation (% of highest signal)” value in test [2] is recorded as -1.0 % of highest signal; in test [3], -0.186 % of highest signal; in test [4], -0.273 % of highest signal; in test [5], -0.0404 % of highest signal; in test [6] it was -3.2 % of highest signal; in test [7] it was -0.569 % of highest signal.

On to “EPHA4_921_933 (QAIKMDRYKDNFT; UniProt P54764 921-933, looked up, fragment)”, for which the “Relative phosphorylation (% of highest signal)” value in test [2] is listed as -0.4 % of highest signal; in test [3], -0.126 % of highest signal; in test [4], -0.327 % of highest signal; in test [5], -0.348 % of highest signal; in test [6], -1.7 % of highest signal; in test [7], -0.535 % of highest signal.

“EPOR_361_373 (SEHAQDTYLVLDK; UniProt P19235 361-373, looked up, fragment)”: the “Relative phosphorylation (% of highest signal)” value in test [2] was 12.7 % of highest signal; in test [3] it was 1.2 % of highest signal; in test [4], 0.0544 % of highest signal; in test [5], 3.3 % of highest signal; in test [6], 2.0 % of highest signal; in test [7], 2.0 % of highest signal.

For the compound “MBP_259_271 (FGYGGRASDYKSA; UniProt P02686 259-271, looked up, fragment)”, the “Relative phosphorylation (% of highest signal)” value in test [2] was 0.9 % of highest signal; in test [3] it was -0.152 % of highest signal; in test [4], -0.0479 % of highest signal; in test [5], -0.152 % of highest signal; in test [6], 0.634 % of highest signal; in test [7] it was -0.0622 % of highest signal.

Consider “MBP_263_275 (GRASDYKSAHKGF; UniProt P02686 263-275, looked up, fragment)”, for which the “Relative phosphorylation (% of highest signal)” value in test [2] is on record as -0.355 % of highest signal; in test [3], -0.172 % of highest signal; in test [4] it was -0.13 % of highest signal; in test [5] it was -0.25 % of highest signal; in test [6] it was -0.9 % of highest signal; in test [7] it was -0.5 % of highest signal.

For “MK01_198_210 (IMLNSKGYTKSID; UniProt P28482 198-210, looked up, fragment)”, the “Relative phosphorylation (% of highest signal)” value is on record as -1.2 % of highest signal in test [2]; -0.184 % of highest signal in test [3]; -0.5 % of highest signal in test [4]; -0.6 % of highest signal in test [5]; -3.8 % of highest signal in test [6]; -0.8 % of highest signal in test [7].
